Experimental data as given in patent US20250147051A1, “METHOD FOR DETECTING A TAU PROTEIN IN A SALIVA SAMPLE” (GTINVENT LIMITED, priority 2022, published 2025).
“Also recorded” adds a separate entry of the source.

How the values were obtained:
tau = assay: Western blot of mouse brain homogenates (WT, L66+/+, L1+/+); conditions: 20 μg brain homogenate protein, 5-month-old WT, L1+/+ mice
Method: Protein equivalent to 20 μg from each brain extract was separated using 4-20% bis-tris gels and run in 1×MES buffer. […] A clear band is visible in the lanes containing L66^+/+ samples, but no other bands are detectable (WT or L1^+/+). […] Once again, a band having relative mobility of 65 kDa is visible in the L66 sample with no other reactive bands present.
This band most likely corresponds to endogenous mouse tau which is of a similar size. In the L66^+/+ samples, a second band running at approximately 68 kDa is also detected. The presence of numerous other bands indicates proteolytic truncation of tau within brain homogenates.

dGA = dGA (Homo sapiens, UniProt P10636); assay: Biacore X100 SPR binding kinetics of anti-tau scAbs (scAb captured via HuCk), analyte dGA; conditions: lead scAbs; for ka: Table 24; for dissociation rate constant (kd): Table 24, dissociation rate
Sequence of dGA (P10636 614-707): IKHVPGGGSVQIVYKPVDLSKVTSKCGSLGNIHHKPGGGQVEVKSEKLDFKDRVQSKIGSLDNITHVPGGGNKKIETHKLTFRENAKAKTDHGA
Method: (§1) Surface plasmon resonance (SPR) is widely regarded as the gold standard for real time measurement of protein-protein interactions such as antibody binding. All SPR experiments were carried out using a Biacore X100 machine and HBS EP+ running buffer (GE Healthcare). A ‘capture’ method was followed for affinity measurements, where an anti-human constant kappa chain (HuCk) antibody was conjugated to the surface of a CM5 sensor chip using an amine coupling kit and scAb molecules were immobilised via their HuCk domain. Amine coupling is a very common approach for immobilising the ligand to the chip surface. The chip surface has a dextran matrix derivatised with carboxyl groups, which after activation with N-hydroxysuccinimide (NHS) and 1-ethyl-3-(3-dimethylaminopropyl) carbodiimide (EDC), form reactive succinimide esters which allows the covalent capturing of the ligand via any available primary amine groups (e.g. Lysine) on the ligand (in this case anti-HuCk antibody). The capture antibody was diluted 1/100 in 10 mM Sodium acetate buffer pH 5.0 and passed over the activated chip surface for a period of at least 420 s. Final ligand immobilisation levels over 12,000 RU were deemed to be satisfactory.
(§2) Following immobilisation, the level of each scAb to be captured was identified using the standard SPR equation with a theoretical RMax of 100 RU. Analyte MW refers to the molecular weight of hT40 or dGA/dGAE molecules, while ligand MW refers to the molecular weight of the scAbs tested. RLis the desired capture level and S refers to the stoichiometric ratio:
(§3) The scAb to be tested was added only to flow cell 2 so that flow cell 1 could act as a control to subtract any interaction with the analyte and the chip surface. Both single and multi-cycle runs were utilised using wizards developed in the Biacore X100 control software which are both accepted methods of kinetic analysis (Karlsson, R., et al. Analyzing a kinetic titration series using affinity biosensors (2006) Analytical Biochemistry 349:136-47). The multi-cycle protocol was as follows-Three start-up cycles composed of an initial capture, to the desired level, of the scAb to be tested was performed followed by a 30 s injection of glycine buffer pH 2.0 after each cycle to regenerate the chip surface. The regeneration step removed any captured scAb whilst leaving the capture antibody intact and able to repeat the capture for the next cycle. Following three start-up cycles increasing concentrations (0.15625 nM-100 nM) of the target to be tested were added to the chip surface after the desired scAb capture. The target was added for a 120 s association period and 420 s dissociation period followed by another regeneration, 30 s injection of glycine buffer pH 2.0 in between each cycle.
The single cycle kinetics protocol was similar and utilised the same level of scAb capture. Three start-up cycles were used followed by 5 increasing concentrations of the analyte (6.25 nM-100 nM) for an association period of 120 s followed by a dissociation period of 420 s for each concentration. In single cycle kinetics the regeneration step was performed only after the final analyte concentration was added. Binding responses were analysed in Biacore X100 evaluation software and data fitted to a 1:1 binding model to obtain kinetic and affinity characterisation.

core region tau = assay: S1D12 immunotherapy 6-week repeat-dose mouse study, plasma tau by CA4-S1G2 core-core Simoa assay; format: in vivo
Method: A total of 12 wildtype, 12 Line 1 and 12 Line 66 female mice were used in this study—Line 1 and Line 66 are transgenic mouse models of tauopathy (Melis et al., 2015). Animals were 2 months old at the beginning of the study. Mice of each genotype were injected intraperitoneally (i.p.) with either vehicle or S1D12 mAb (30 mg/kg), once per week, for six consecutive weeks.
Seven days post final dose, cardiac puncture blood sampling was performed. mice were anaesthetised using an overdose of sodium pentobarbital (i.p.) and blood was collected via cardiac puncture through a Plastipak syringe pre-rinsed with heparinised saline (10 U/mL) and transferred into a plastic vial containing lithium heparin anticoagulant. Blood samples were centrifuged to obtain plasma at 2,000×g for 5 min at 6° C.
In order to monitor the ‘treatment effect’ of S1D12 mAb, plasma tau of vehicle control and antibody treated L66^+/+ mice were assessed via a core-core homebrew Simoa® assay to investigate changes in core tau pools in these mice.

dGAE aggregates = target: T1, dGAE aggregates (Homo sapiens, UniProt P10636); assay: Sandwich ELISA LoD for SDS Triton X-100 treated dGAE aggregates; format: binding; conditions: label = detection scAb
T1 construct: host or cells: aggregated in house: 100 μM dGAE with DTT, 700 rpm, 37 °C, 24 h
T1 sequence (P10636 614-708): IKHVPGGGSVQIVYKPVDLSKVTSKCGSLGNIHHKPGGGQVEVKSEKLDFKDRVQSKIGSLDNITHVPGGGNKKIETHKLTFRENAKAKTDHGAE
Method: For aggregation, 1000 μL 100 μM dGAE+10 μL 10 mM DTT was added to a ‘LoBind’ microfuge tubes and agitated at 700 RPM/37° C. for 24 hours. Resulting sample centrifuged at 17,000×g/4° C. for 60 min and supernatant discarded to remove left over monomer. Pellet resuspended in half the original volume for future experiments and hereafter referred to as ‘aggregates’. 1 μl of aggregates was added to 1 ml of PBS and SDS was added to a final concentration of 1% (w/v). This was left to incubate on lab bench for 1 h with gentle agitation every 15 minutes. In order to neutralise the SDS effect on ELISA, Triton X-100 added to a final concentration of 3% (v/v) and mixed gently by pipetting to prevent any bubble formation. 200 μl added of this mix was to the first well of an ELISA plate coated with 1 μg/ml S1D12 mAb and blocked with 2% MPBS. Similarly aggregates treated with only SDS or Triton X-100, untreated aggregates, dGAE monomers treated with only SDS or SDS+Titon X-100 were also added to designated wells as controls. All samples were then double diluted across the plate in final volumes of 100 μl. The final column was left with no protein to act as a blank. This was allowed to stand at room temperature for 1 hour followed by the addition of detection scAb-S1G2 at 10 μg/ml. Anti-HuCk HRP labelled secondary antibody was added as described previously and ELISA data generated was represented using the graph below. In addition, limits of detection (LoD) of various core binding antibody pairing for SDS Triton X-100 treated dGAE aggregates were calculated using the above describe ELISA method and substituting capture mAbs and detection scAbs as shown in Table 30.

tau protein = assay: Capture ELISA of transgenic mouse brain lysates; conditions: S1D12 mAb capture; label = detection scAb; WT, L1, L66+/- and L66+/+
Method: Mouse brain lysates were prepared from wildtype, Line 1, Line 66+/+ and Line 66+/− (Melis et al., 2015, all surplus from Charles River, part of study R0144). All animals were female, 7-8 months old except Line 66+/+ which were 5 months old. […] The L1 cDNA construct (FIG. 23) contains human tau cDNA coding for amino acid residues 296-390 with a signal sequence and related sequences in a murine Thy-1 expression cassette. For brain lysate preparation, half brains were sectioned into four and the individual sections were homogenised in 400 μl of ice cold RIPA buffer (Cell signalling Technology) containing protease and phosphatase inhibitors. Total protein concentrations for individual samples were established by BCA-assay and each sample was subsequently diluted to 1 mg/ml for future experiments.
For capture ELISA, 100 μL S1D12 capture mAb was used to coat a nunc 96 well Maxisorp plate at 1 μg/ml and incubated for 1 hour at 37° C. Plate was washed as previously and then blocked for 1 hour at 37° C. in 2% MPBS. Brain homogenate samples (50 ng total protein) from each mouse type were added to the first wells and double diluted across the plate in PBS. These samples were left to incubate at RT for 1 hour. Various detection scAbs encompassing epitopes of interest were then added to the plate at 1 μg/ml and incubated for 1 h at RT. Secondary antibody used was anti-HuCk HRP and the assays were developed as described previously. Using S1D12 mAb capture and two separate scAb detectors, S-1G2 (FIG. 24A) and C-B7 (FIG. 24B), it was possible to differentiate between L1 and L66 samples and the wild type.

dGAE = dGAE (Homo sapiens, UniProt P10636); assay: Biacore X100 SPR binding kinetics of anti-tau scAbs (scAb captured via HuCk), analyte dGAE; conditions: lead scAbs
Sequence of dGAE (P10636 614-708): as above
Method: as §1, §2
as §3, with “Following three start-up cycles increasing concentrations (0.15625 nM-100 nM) of the target to be tested were added to the chip surface after the desired scAb capture. The target was added for a 120 s association period and 420 s dissociation period followed by another regeneration, 30 s injection of glycine buffer pH 2.0 in between each cycle.” left out
The single cycle kinetics protocol was similar and utilised the same level of scAb capture. […] Binding responses were analysed in Biacore X100 evaluation software and data fitted to a 1:1 binding model to obtain kinetic and affinity characterisation.

| Molecule | Western blot reactivity (tau) | ka (dGA) [M⁻¹ s⁻¹] | dissociation rate constant (kd) (dGA) [s⁻¹] | plasma tau, L66+/+ mice with S1D12 treatment (core region tau; 30 mg/kg i.p. once per week for six weeks, CA4-S1G2 Simoa) | increase of core region tau in plasma vs vehicle group, L1 (core region tau; CA4-S1G2 pairing, n=5 or 6) | increase of core region tau in plasma vs vehicle group, L66 (core region tau; CA4-S1G2 pairing, n=5 or 6) | increase of core region tau in plasma vs vehicle group, wild-type (core region tau; CA4-S1G2 pairing, n=5 or 6) | LoD, 423 mAb capture, +SDS Triton dGAE agg. (dGAE aggregates) [ng/mL] | LoD, S1D12 mAb capture, +SDS Triton dGAE agg. (dGAE aggregates) | LoD, direct immobilisation of dGAE aggregates, +SDS Triton dGAE agg. (dGAE aggregates) [ng/mL] | detection of tau in mouse brain homogenate (tau protein) | ka (dGAE; Table 24) [M⁻¹ s⁻¹] | dissociation rate constant (koff) (dGAE; Table 24, dissociation rate) [s⁻¹] |
| --- | --- | --- | --- | --- | --- | --- | --- | --- | --- | --- | --- | --- | --- |
| S1D12: anti-tau binding molecule defined by its CDRs; scAb sequence SEQ ID NO: 32 (protein, S1D12 amino acid sequence) scFv: QVQLQESGPSLVKPSQTLSLTCTVSGFSLNNNAVGWVRQAPGKVPESLVGCSSDGTCYYNSALKSRLDITRDTSKNQISLSLSSVTTDDAAVYYCTRGHYSIYGYDYLGTIDYWGPGLLVTVSSEGKSSGASGESKVDDQAVLTQPSSVSGSLGQRVSITCSGSSSNVGGGNSVGWYQHLPGSGLKTIIYDTNSRPSGVPDRFSGSRSGNTATLTINSLQAEDEGDYYCVTGDSTTHDDLVGSGTRLTVLG | A band is detected in each sample (WT, L66^+/+ and L1^+/+) | 1.21e+06 | 0.000418 | 3.52 (0.20) ng/ml | more than 100 fold | more than a threefold increase | less than a two-fold increase | – | – | – | – | – | – |
| S1G2: anti-tau binding molecule defined by its CDRs; scAb sequence SEQ ID NO: 81 (protein, S1G2 amino acid sequence) scFv: QVQLQESGPSLVKPSQTLSLTCTVSGFSLTSNSVGWVRQAPGKAPEWVAGIDTDGEEGYNPALNSRLSITRDTSKSQVSLSLSSVTSEDTAVYYCGRSYRADGLAYGYVQAIDYWGPGLLVTVSSEGKSSGASGESKVDDQAVVTQPSSVSGSLGQRVSITCSGSFIGISSVGWFQQLPGSGLRTIIVASDGRPSGVPDRFSMSKSGNTATLTISSLQAEDEADYFCGSSDRTPYTGVFGSGTRLTVLG | A band is detected in each sample (WT, L66^+/+ and L1^+/+); also recorded: able to detect the pathologic 10-kDa tau fragment | 783000 | 0.0003499 | – | – | – | – | 30 | approximately 2 ng/ml | 16 | tau protein was detected in 50 μg of total brain protein in all four different sample types | – | – |
| E1E8: anti-tau clone, SEQ ID NO: 250 (protein, E1E8 amino acid sequence) scFv: QVQLQESGPSLVKPSQTLSLTCTVSGFSLTDWGVAWVRQAPGKALEWLGTMRSGGTTDDNPALKSRLSITRDTSKSQVSLSLSSVTTEDMAMYYCARGYLSGVHYAWGRGLLVTVSSEGKSSGASGESKVDDQAVLTQPSSVSGSLGQSVSITCSGSSSNVGDGRYVSWFQQVPGSAPKLLIYDTTSRASGVPDRFSGSRSGNTATLIITSLQAEDEADYYCASIDSGNNLLFGSGTRLTVLG | – | – | – | – | – | – | – | – | – | – | – | 153500 | 0.0014 |
